Assay results published in PMC5780253 (Biochimica et biophysica acta, 2017).

Target: the molecule itself
Experiment: SDS-PAGE and Western blot of cell lysate without cross-linker

B1: human apical sodium-dependent bile acid transporter, wild type (wt-hASBT) (natural protein, UniProt Q12908 1-348, looked up)
chain: MNDPNSCVDNATVCSGASCVVPESNFNNILSVVLSTVLTILLALVMFSMGCNVEIKKFLGHIKRPWGICVGFLCQFGIMPLTGFILSVAFDILPLQAVVVLIIGCCPGGTASNILAYWVDGDMDLSVSMTTCSTLLALGMMPLCLLIYTKMWVDSGSIVIPYDNIGTSLVSLVVPVSIGMFVNHKWPQKAKIILKIGSIAGAILIVLIAVVGGILYQSAWIIAPKLWIIGTIFPVAGYSLGFLLARIAGLPWYRCRTVAFETGMQNTQLCSTIVQLSFTPEELNVVFTFPLIYSIFQLAFAAIFLGFYVAYKKCHGKNKAEIPESKENGTEPESSFYKANGGFQPDEK
modifications: N-glycosylated at Asn10 (glycosylated ~41 kDa and non-glycosylated ~37 kDa forms both seen)
stoichiometry N: 2
